This is an account of results in patent publication US20180022822A1 (MABIMMUNE DIAGNOSTICS, published 2018).

As usually defined, the Kd is the equilibrium constant for the complex coming apart. The term koff denotes the rate constant with which the complex falls apart. The term kon denotes a measure of how fast the partners come together. Usually EC50 stands for the concentration at which the effect is half-maximal. One may read the EC50 (read off the curve) as the concentration giving half of the maximal effect.

For test [1], the target named is T1, recombinant human Fibroblast Activation Protein (FAP) with N-terminus 6x histidine tag (human, UniProt Q12884 26-760).
T1 construct: Bought protein; also called rFAP; rhFAP
T1 sequence: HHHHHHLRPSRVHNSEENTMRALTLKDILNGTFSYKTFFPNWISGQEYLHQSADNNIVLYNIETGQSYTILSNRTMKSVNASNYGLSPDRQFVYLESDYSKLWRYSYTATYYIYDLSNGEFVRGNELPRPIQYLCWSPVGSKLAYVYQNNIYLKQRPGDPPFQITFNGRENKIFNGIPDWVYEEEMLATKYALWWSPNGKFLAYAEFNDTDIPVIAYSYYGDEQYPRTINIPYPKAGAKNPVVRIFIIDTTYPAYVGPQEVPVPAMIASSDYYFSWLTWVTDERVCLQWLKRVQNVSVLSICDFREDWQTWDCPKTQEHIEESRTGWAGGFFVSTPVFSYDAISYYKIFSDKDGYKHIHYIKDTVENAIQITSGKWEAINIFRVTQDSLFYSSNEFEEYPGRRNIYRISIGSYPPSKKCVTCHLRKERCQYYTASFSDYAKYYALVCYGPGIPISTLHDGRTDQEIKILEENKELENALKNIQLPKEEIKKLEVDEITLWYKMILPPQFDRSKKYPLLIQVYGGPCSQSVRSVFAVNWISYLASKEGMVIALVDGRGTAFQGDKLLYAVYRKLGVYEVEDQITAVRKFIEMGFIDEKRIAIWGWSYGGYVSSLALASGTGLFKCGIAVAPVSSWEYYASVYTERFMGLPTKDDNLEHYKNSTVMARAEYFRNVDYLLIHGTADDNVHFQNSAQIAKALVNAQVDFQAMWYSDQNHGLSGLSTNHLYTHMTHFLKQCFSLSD
Nature of the test: SPR (ProteOn): rhuFAP amine-coupled on a GLC chip, antibody injected at 106.7, 53.3, 26.7, 13.3 and 6.7 nM. The method, then:
This was achieved by varying the concentration of the activation reagents used in each channel. Three activation solutions were prepared using a threefold serial dilution of a stock mixture containing 0.4 M EDC+0.1 M sulfo-NHS and injected for 360 s. Then rhuFAP at 2.5 μg/ml in coupling buffer (10 mM HEPES, 150 mM NaCl, 3.4 mM EDTA, 0.005% Tween 20, pH 5.2) was coupled for 1020 s at 25 μL/min. Excess reactive esters were blocked for 600 s with 1 M ethanolamine hydrochoride. […] serial dilution of […] starting at 16 μg/mL (106.7 nM) was injected for 400 s at 60 μL/min. A single injection delivered a full concentration series, using buffer to complete a row of six samples and provide an in-line blank for double-referencing the response data. Association and dissociation phases were measured for 400 s and 3600 s, respectively.

In test [2] the target is T1, recombinant human Fibroblast Activation …. Nature of the test: direct ELISA: rFAP directly coated (FAP). Background: ELISA stands for enzyme-linked immunosorbent assay.
Test [3] deals with T2, bovine serum albumin (BSA) (bovine, UniProt P02769 25-607).
T2 construct: Negative control antigen in the ELISAs
Nature of the test: direct ELISA: BSA coated directly on the plate.

The target of test [4] is T1, recombinant human Fibroblast Activation …. Nature of the test: capture ELISA: His-tagged rFAP captured by coated anti-His antibody (sFAP). The protocol: For the capture ELISA, the microplates were coated with mouse anti-His monoclonal antibody (Clontech) diluted to a concentration of 3 μg/ml in PBS, the plates were then blocked, FAP or BSA were diluted to a concentration of 2 μg/ml in PBS and added to the plates to be captured. The binding efficiency of the antibodies was then tested.
The EC₅₀ values were estimated by a non-linear regression using GraphPad Prism (San Diego, USA) software.

Test [5] has the same target. Nature of the test: ELISA: rhFAP held on the plate by an anti-tag antibody, HRP-labelled NI-206.82C2 titrated, TMB, OD 450 nm [continued) E]. An excerpt: Active recombinant human enzymes evaluated in this assay include: Fibroblast Activation Protein (FAP; Sino Biologicals, 10464-H07H), Dipeptidyl Peptidase IV (DPPIV, BPS Bioscience 80040), Dipeptidyl Peptidase 8 (DPP8, BPS Bioscience 80080), Dipeptidyl Peptidase 9 (DPP9, BPS Bioscience 80080), and Prolyl Oligopeptidase/Prolyl Endopeptidase (POP/PREP, BPS Bioscience 80105). Each recombinant peptidase was expressed with a purification tag, and attached to the 96 well ELISA plate using either a mouse anti-Histidine antibody (CloneTech), or a mouse anti-Glutathione S-transferase (GST, Sino Biologicals, 111213-MM02) tag antibody. […] H-Gly-Pro-AMC (ATT Bioquest, 13450) was used to validate the presence and activity of DPP4, DPP9, and DPP8. Z-Gly-Pro-AMC (BaChem, 11145) was used to evaluate the activity of FAP and POP/PREP. […] Following a washing step, bound antibody was detected using 3,3′,5,5′-Tetramethylbenzidine (TMB) substrate.

Test [6] has as its target T3, cFAP (mixture of three FAP peptides) (human).
T3 construct: A mixture of three separate peptides coated together, not a complex; The three chains are the three components; also called directly coated FAP peptides mixture
T3 peptide 1: HYIKDTVENAIQITS
T3 peptide 2: GWSYGGYVSSLALAS
T3 peptide 3: QVDFQAMWYSDQNHGL
Nature of the test: direct ELISA: coated mixture of three FAP peptides (cFAP).

T2 sequence (P02769 25-607 limits assumed): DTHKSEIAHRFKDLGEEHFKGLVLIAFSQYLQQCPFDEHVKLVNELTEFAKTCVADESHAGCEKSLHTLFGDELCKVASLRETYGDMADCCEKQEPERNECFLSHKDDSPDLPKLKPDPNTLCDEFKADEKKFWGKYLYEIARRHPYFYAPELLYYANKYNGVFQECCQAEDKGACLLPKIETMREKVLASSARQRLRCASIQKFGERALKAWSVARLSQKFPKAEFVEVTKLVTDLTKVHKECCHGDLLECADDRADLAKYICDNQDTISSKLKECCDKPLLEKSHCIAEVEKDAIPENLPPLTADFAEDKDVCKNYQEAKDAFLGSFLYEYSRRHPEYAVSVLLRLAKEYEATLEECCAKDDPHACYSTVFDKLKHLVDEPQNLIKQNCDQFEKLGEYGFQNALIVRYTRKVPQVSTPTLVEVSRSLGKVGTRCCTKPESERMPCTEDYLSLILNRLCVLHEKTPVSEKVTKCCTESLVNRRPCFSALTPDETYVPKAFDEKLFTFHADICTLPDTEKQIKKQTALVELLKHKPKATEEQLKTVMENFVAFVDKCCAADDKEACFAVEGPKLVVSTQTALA

B1: NI-206.82C2 (antibody, V domains shown)
VH: QVQLQQSGPGLVKPSQTLSLTCAISGDSVSSNSVTWNWIRQSPSRGLEWLGRTYYRSKWYNDYAVSVKGRITINPDTSKNQFYLQLKSVTPEDAAVYYCARDSSILYGDYWGQGTLVTVSS
VL: QAVLTQPSSLSASPGASASLTCTLPSGINVGTYRIFWFQQKPGSPPQYLLSYKSDSDNHQGSGVPSRFSGSKDASANAGILLISGLQSEDEADYYCMIWHSSAWVFGGGTKLTVL
notes: Recombinantly expressed as complete human IgG1 with a lambda light chain; HRP-labelled in the homologue and sandwich ELISAs, Cy5-labelled in flow cytometry; also called HRP-labelled 82C2; Cy5 labelled 82C2
For the molecule B1, in test [1], the Kd stood at 5.08 nM, the koff turned out to be 0.000861 s⁻¹ and the kon is 173000 M⁻¹ s⁻¹. In addition, in test [2], the concentration for a half-maximal effect (EC50) was 0.61 nM. Further, the binding result in test [3] was “no binding”. The EC50 in test [4] stood at 0.014 nM. In test [5], the “EC50 (read off the curve)” value was ~0.05 nM. In test [6], the binding result is “no binding”.
